Values of other authors, collected in article PMC6787260.
Where two headings read alike, the source gives them in different places.

Columns and labels:
PDK1 (Homo sapiens) [1] = molecular target: PDK1 (Homo sapiens) (UniProt O15530); assay: time resolved-FRET
PDK1 (Homo sapiens) [2] = molecular target: PDK1 (Homo sapiens) (UniProt O15530); assay: time resolved-FRET; remark: listed apart in the source

Kd (PDK1 (Homo sapiens) [1]): 11 µM
Kd (PDK1 (Homo sapiens) [2]): 49 µM
Substance: PDK1 (from UniProt O15530)
